Data from PMC8549804 (Chemical Science, 2021).

Target: the molecule itself
Assay: native MS

Protein	stoichiometry N
bacteriophage T4 gene product 32 (gp32) (natural protein, disulfur monoxide moiety at Cys302 (C-terminal, attributed to the intein reaction)) MFKRKSTAELAAQMAKLNGNKGFSSEDKGEWKLKLDNAGNGQAVIRFLPSKNDEQAPFAILVNHGFKKNGKWYIETCSSTHGDYDSCPVCQYISKNDLYNTDNKEYSLVKRKTSYWANILVVKDPAAPENEGKVFKYRFGKKIWDKINAMIAVDVEMGETPVDVTCPWEGANFVLKVKQVSGFSNYDESKFLNQSAIPNIDDESFQKELFEQMVDLSEMTSKDKFKSFEELNTKFGQVMGTAVMGGAAATAAKKADKVADDLDAFNVDDFNTKTEDDFMSSSSGSSSSADDTDLDDLLNDLC	2
gp32-ΔCTD (amino acids 1-254) (domain or fragment, bacteriophage T4, UniProt P03695 1-254, looked up) MFKRKSTAELAAQMAKLNGNKGFSSEDKGEWKLKLDNAGNGQAVIRFLPSKNDEQAPFAILVNHGFKKNGKWYIETCSSTHGDYDSCPVCQYISKNDLYNTDNKEYSLVKRKTSYWANILVVKDPAAPENEGKVFKYRFGKKIWDKINAMIAVDVEMGETPVDVTCPWEGANFVLKVKQVSGFSNYDESKFLNQSAIPNIDDESFQKELFEQMVDLSEMTSKDKFKSFEELNTKFGQVMGTAVMGGAAATAAKK	2
